Consider 3 molecules from patent publication US10513713B2, “Modified host cells having tolerance to α-olefins” (priority 2014, dated 2019).

To fix the notation:
B1: Pseudomonas putida KT2440: heterologous RND efflux pump, AcrB homolog from Pseudomonas putida KT2440 (protein, listed as Pseudomonas putida)
chain: MSKFFIDRPIFAWVIALVIMLVGALSILKLPINQYPSIAPPAIAIAVTYPGASAQTVQDTVVQVIEQQLNGIDNLRYVSSESNSDGSMTITATFEQGTNPDTAQVQVQNKLNLATPLLPQEVQQQGIRVTKAVKNFLLVIGLVSEDGSMTKDDLANYIVSNMQDPISRTAGVGDFQVFGAQYAMRIWLDPAKLNKFQLTPVDVKTAVAAQNVQVSSGQLGGLPALPGTQLNATIIGKTRLQTAEQFESILLKVNKDGSQVRLGDVAQVGLGGENYAVSAQFNGKPASGLAVKLATGANALDTAKALRETIKGLEPFFPPGVKAVFPYDTTPVVTESISGVIHTLIEAVVLVFLVMYLFLQNFRATIITTMTVPVVLLGTFGILAAAGFSINTLTMFAMVLAIGLLVDDAIVVVENVERVMSEEGLPPKEATKRSMEQIQGALVGIALVLSAVLLPMAFFGGSTGVIYRQFSITIVSAMGLSVLVALIFTPALCATMLKPLKKGEHHTAKGGFFGWFNRNFDRSVNGYERSVGAILRNKVPFLLAYALIVVGMIWLFARIPTAFLPEEDQGVLFAQVQTPAGSSAERTQVVVDQMREYLLKDEADTVSSVFTVNGFNFAGRGQSSGMAFIMLKPWDERSKENSVFALAQRAQQHFFTFRDAMVFAFAPPAVLELGNATGFDVFLQDRGGVGHEKLMEARNQFLAKAAQSKILSAVRPNGLNDEPQYQLTIDDERASALGVTIADINNTLSIALGASYVNDFIDRGRVKKVYIQGEPSARMSPEDLQKWYVRNGAGEMVPFSSFAKGEWTYGSPKLSRYNGVEAMEILGAPAPGYSTGEAMAEVERIAGELPSGIGFSWTGMSYEEKLSGSQMPALFALSVLFVFLCLAALYESWSIPIAVVLVVPLGIIGALIATSLRGLSNDVYFLVGLLTTIGLAAKNAILIVEFAKELHEQGRSLYDAAIEACRMRLRPIIMTSLAFILGVVPLTIASGAGAGSQHAIGTGVIGGMISATVLAIFWVPLFFVAVSSLFGSKEPEKDVTPENPRYEAGQ
B2: Pseudoalteromonas haloplanktis TAC125: heterologous RND efflux pump, AcrB homolog from Pseudoalteromonas haloplanktis TAC125 (protein, listed as Pseudoalteromonas haloplanktis)
chain: MSRYFIDKPIFAWVLAIIVMLAGILAVKSLPIAQYPSIAPPAISITANYPGASAQTLEDSVTQVIEQKMKGLDGLLYMSSTSESNGSATLTLTFNADTDPDIAQVQVQNKLATATPLLPEEVQRQGVVVAKAARNFLLVLAFVSKDGSMTNIDIGDYVASNVQDIVSRVDGVGEAQLFGSQYAMRIWLDPAKLQNFKLTPNDIGAAITAQNAQVSAGQLGGMPAIAGQQLNATITAQSRLQTPEQFENILVKTNSDGSVVRLKDVARVELGGENYGVVARYNGDPAAGIGIKLASGANALDTAEGVKKALEDLKPFFPEGLDVAIPYDTTPFVSLSIEKVVHTLIEAVILVFVVMYLFLQNFRATLIPTIAVPVVLLGTFAILYTFGYSINTLTMFAMVLAIGLLVDDAIVVVENVERLMTEEKLSALDATRKSMDEIKGALVGIAMVLSAVFIPMAFFSGSTGVIYRQFSITIVSAMGLSVLVALILTPALCATLLKPSHVHDKTSFIGRFFSGFNRGFDKTNRGAQGIVGRMISQSKRYLLIYGVLVGGMVYVFSSLPTAFLPDEDQGILFNQVMLPAGSTIEQTLGVVEKVENHYLNDQAEAVGSIFTVTGFSFAGSGQNSAIGFVNLKHWDERQRDDLSVNAVAGKGMGYFSTIKEAFVFAFPPPAIVELGTANGFNMFLQDRVGLGHDELLNARNMLLGMASKSPVLAGVRPNGQEDMPELQLDIDLAKAEALGVTQTDINSTLSTAWGSRYVNDFIDRGRVKKVYMQGEADSRMVPEDLNKWYVRNNNGDMVPFAAFASSHWSYGSPRLERYNGFSAMEIQGSAAPGYSTGQAMDEMERLVKQLPNGIASEWSGISYQERSSGGQAPLLYGLSLLFVFLCLAALYESWSVPFAVMIIVPLGIFGAIMAALIGNLSNDIYLQVGLLTTIGLASKNAILIVEFAIHKMEEGLSLVDAAIAAVKLRLRPVLMTSLAFICGVVPLAIASSAGSGAQNALGISIIGGTLAASTLVVLFVPLFFVLVRKTFSSKSAVATKESE
B3: Marinobacter aqueolei EPL: heterologous RND efflux pump, AcrB homolog from Marinobacter aqueolei EPL (protein, listed as Marinobacter aqueolei)
chain: MPRFFIERPIFAWVVALMLMLGGGLAVKNLAVNQFPDVAPPAIALSVNYPGASAQTVQDTVVQVIEQQLNGLDGLRYISSESNSDGSMTIIATFEQGTDPDIAQVQVQNKLQLANPLLPEEVQRQGIRVSKYKVNFFTVFALTSPDGKYTQGDLADYIVSNIQDPVARTQGVGDFLLFGSQYAMRLWLDPEKLNSYQLTPQDVINSVRAQNVQVSAGQLGGLPTAEGVQLQATVIGKQRMKTAEEFENILLKVNPDGSQVRLADVAEVNLGNENYATTGKYNGAPAAGMALRLATGANQLETAGRVKETLAELERFLPEGVEIVFPYDTTPVVSASIETVAMTLIEAVVLVFLVMFLFLQSWRATIIPTLAVPVVLLATFGVLYAFGFTVNVMTMFAMVLAIGLLVDDAIVVVENVERLMEEEGLSPKEAAKKSMDQISGALLGIGLVISAVFLPMAFFGGSTGVIYRQFSVTIISAMSFSVLVAFIFTPALCATLLKPGDQHVRKGFFGWFNRTFDRSADRYKSGVSYLIKRKGRFMGVYLLLVVAVGFLFKGLPTAFLPDEDQGVMIVMVQLPTNATGERTEAVLAEAGNYLLEEESEVVKSVMSVRGFNFAGRGQNSGILFVDLKPFADRESFAQSVFALAGRSGARFAQIKDAIVFPIVPPAILELGNATGFDLYLKDNGAIGHHALMAATNEFISRANAAPELNMVRHNGLPDEPQYQVIIDDEKARLLQVSIADINATMSAAWGSSYVNDFLHNGRVKKVYVQGKPDSRLAPEDFDKWFVRNAQGEMVPFAAFATGEWVFGSPRLQRYQGLPATQIQGAPANGYSTGDAMAALERIAADLPQGLGLEYTGLSFEEKQAGNQAMMLYLLSILVVFLCLAALYESWSIPFAVIMLVPLGVLGAVLATMARGLSNDVFFQVGMLTTMGLAAKNAILIVEFARQLYEQEGKPLLQATAEAARLRLRPIIMTSLAFIFGVLPMAIASGASSASQHAIGTAVVGGTLAATILAIFFVPLFYVFVVGLTGKRKSADD

This experiment relates to E. coli DH1 ΔacrAB. Nature of the experiment: Survival test of heterologous efflux pump library in 1-hexene saturated atmosphere. It counts as cell-based. The conditions noted are these: FIG. 7. How it is done: FIG. 7: Impact of homologous pumps on growth in presence of 1-hexene. Survival test of E. coli DH1 ΔacrAB producing either the AcrAB wild type or AcrAB homologs in a 1-hexene saturated atmosphere was performed. One dilution of cultures (10^6 cells) was spotted on agar plate. […] From left to right and from top to bottom of the picture, are culture of strains producing the pumps A. vinelandii (YP_002797425), A. vinelandii (MexF), A. vinelandii (YP_002801502), P. putida (TtgB), P. putida (NP_745594), P. putida (MexF), P. putida (NP_743067), P. aeruginosa (MexB), P. aeruginosa (NP_250708), P. aeruginosa (MexF), P. aeruginosa (NP_253065), P. fluorescens (YP_258460), P. fluorescens (YP_260376), P. fluorescens (YP_258159), P. fluorescens (YP_258289), R. metallidurans (YP_586997), R. melallidurans (YP_583276), R. metallidurans (YP_583852), M. aqueolei (YP_960752), M. aqueolei (YP_957870), P. syringae (YP_276144), P. syringae (YP_275089), P. syringae (MdtB), P. syringae (YP_273025), P. syringae (YP_273463), P. syringae (YP_272632), G. metallireducens (YP_383777), G. metallireducens (YP_384620), G. metallireducens (YP_385464), G. metallireducens (YP_384608), G. metallireducens (YP_386066), B. pertussis (NP_880739), D. vulgaris (YP_009662), S. putrefaciens (YP_001181626), A. borkumensis (YP_692684), B. borkumensis (YP_694242), P. haloplanktis (AcrB), S. halifaxensis (YP_001672433), S. halifaxensis (YP_001673423), S. halifaxensis (YP_001674385), E. coli (AcrEF), E. coli (AcrAB), E. coli (AcrD).
An existing library of heterologous efflux pumps in E. coli (Dunlop et al. 2011) was used to test if another pump may provide better tolerance to 1-hexene than the native E. coli AcrAB-TolC system. Using the agar plate-based method, this strain library constructed in a DH1 ΔacrAB background was tested and the survival compared in presence of 1-hexene relative to the strain expressing an equivalent plasmid-borne copy of the native acrAB genes.
To test the heterologous efflux pump library, the same method was used. […]
As for B1, the “tolerance to 1-hexene relative to the native E. coli acrAB-expressing strain” value was “equivalent tolerance”. With B2, the “tolerance to 1-hexene relative to the native E. coli acrAB-expressing strain” value was “equivalent tolerance”. To B3 belongs “equivalent tolerance”.
